Values quoted from earlier work in paper PMC9028781.

Assays:
[1] = target: YopB (nanodisc-embedded) (Yersinia pestis) (UniProt Q06114)
[2] = target: Substance P (Homo sapiens) (UniProt P20366)
Substance P (Homo sapiens), sequence (P20366 whole entry, looked up): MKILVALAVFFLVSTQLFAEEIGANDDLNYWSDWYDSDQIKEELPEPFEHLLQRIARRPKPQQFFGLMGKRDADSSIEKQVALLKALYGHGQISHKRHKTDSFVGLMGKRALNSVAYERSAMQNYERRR

LcrV-EGFP, sequence (P0C7U7 whole entry): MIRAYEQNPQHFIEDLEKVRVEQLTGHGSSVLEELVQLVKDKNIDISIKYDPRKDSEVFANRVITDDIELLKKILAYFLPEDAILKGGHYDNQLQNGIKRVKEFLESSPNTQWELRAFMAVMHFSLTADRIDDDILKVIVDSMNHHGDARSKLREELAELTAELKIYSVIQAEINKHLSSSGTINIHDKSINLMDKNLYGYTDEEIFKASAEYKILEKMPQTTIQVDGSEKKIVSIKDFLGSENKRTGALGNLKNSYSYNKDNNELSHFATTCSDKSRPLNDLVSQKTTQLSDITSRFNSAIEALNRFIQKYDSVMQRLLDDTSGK
Neurokinin-1 receptor (NK1R, nanodisc-embedded), sequence (P25103 whole entry): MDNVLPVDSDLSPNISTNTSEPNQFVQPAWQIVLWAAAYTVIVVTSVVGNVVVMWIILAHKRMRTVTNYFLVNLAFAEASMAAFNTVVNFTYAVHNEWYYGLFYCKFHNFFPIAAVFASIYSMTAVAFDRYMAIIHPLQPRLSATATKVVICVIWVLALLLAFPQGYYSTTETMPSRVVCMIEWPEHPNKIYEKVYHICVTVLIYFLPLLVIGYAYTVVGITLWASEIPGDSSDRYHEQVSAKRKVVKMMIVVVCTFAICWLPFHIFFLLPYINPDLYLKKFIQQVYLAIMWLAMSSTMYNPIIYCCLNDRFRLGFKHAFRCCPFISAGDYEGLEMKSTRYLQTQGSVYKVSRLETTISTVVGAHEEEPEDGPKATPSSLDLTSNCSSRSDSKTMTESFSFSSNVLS
YopB (nanodisc-embedded) (Yersinia pestis), sequence (Q06114 whole entry): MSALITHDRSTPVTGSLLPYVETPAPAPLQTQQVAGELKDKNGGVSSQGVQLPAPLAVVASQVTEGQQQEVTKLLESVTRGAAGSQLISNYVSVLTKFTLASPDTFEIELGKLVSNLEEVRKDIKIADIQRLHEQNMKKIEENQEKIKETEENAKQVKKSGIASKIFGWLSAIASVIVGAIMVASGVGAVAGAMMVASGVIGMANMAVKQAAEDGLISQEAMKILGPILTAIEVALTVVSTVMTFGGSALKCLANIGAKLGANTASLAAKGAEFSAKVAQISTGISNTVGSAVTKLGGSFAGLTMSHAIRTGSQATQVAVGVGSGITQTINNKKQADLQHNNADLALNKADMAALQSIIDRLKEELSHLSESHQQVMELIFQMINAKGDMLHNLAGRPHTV

Substance	Kd [1] [nM]	Kd [2] [nM]
LcrV-EGFP (from UniProt P0C7U7)	20	–
Neurokinin-1 receptor (NK1R, nanodisc-embedded) (from UniProt P25103)	–	83
